Assay: Effect of glycosidase treatment on rHuPH20 hyaluronidase activity
Type: biochemical
Parameters: unit not given here
Method: In short, a 4×BH 96-well plate was coated with biotinylated-HA (1.1 MDa). The 72 hour post transfection supernatant from cells transfected with human PH20 hyaluronidase carboxy-terminus deletion mutants was diluted in buffer at either pH 7.4 or pH 5.5 and added to individual wells of the plate and allowed to incubate at 37° C. for 90 minutes. The reaction was terminated by addition of 4M guanidine HCl. The wells were washed 4× with Phosphate Buffered Saline with Tween20 (PBST) to remove any digested biotinylated-HA followed by addition of streptavidin-HRP for 1 hour at room temperature. The wells were washed 4× with PBST and the plate was developed with TMB. The plate was read at 450 nm using an ELISA plate reader. Hyaluronidase activity (in Units/mL) was determined by interpolating the measured absorbance at 450 nm with a hyaluronidase reference standard curve. Full length mature human PH20 hyaluronidase and untransfected CHO cells were used as positive and negative controls.
Human PH20 hyaluronidase is glycosylated at six different asparagine residues, including N82, N166, N235, N254, N368, and N393. Five glycosidases were used to generate deglycosylated human PH20 hyaluronidase, including: PNGaseF (New England Biolabs, Cat. No. P0704S, Lot #34), which cleaves all N-glycans; EndoF1, which cleaves high mannose and hybrid type glycans; EndoF2, which cleaves biantennary complex type glycans; EndoF3, which cleaves biantennary and more branched complex glycans; and EndoH (New England Biolabs, Cat. No. P0702S), which cleaves high mannose and hybrid type glycans. Therefore, treatment with PNGaseF results in complete deglycosylation whereas treatment with endoglycosidases results in only partial deglycosylation.
For complete deglycosylation, purified rHuPH20 (0.1 mg/mL final concentration) was incubated with PNGaseF (50,000 units/mL) in 50 mM phosphate buffer pH 7.2 overnight at 37° C. For partial deglycosylation, purified rHuPH20 (0.5 mg/mL final concentration) was incubated with 0.3 units/mL of endoglycosidase (either EndoF1, EndoF2, EndoF3 or EndoH) or a mixture all four endoglycosidases in 50 mM sodium acetate buffer pH 5.0 overnight at 35° C. Deglycosylation of rHuPH20 was analyzed by the shift in the mobility of PH20 by SDS-PAGE. Hyaluronidase enzymatic activity was determined as described in Example 5.

B1: PNGaseF: purified rHuPH20 incubated with PNGaseF (complete deglycosylation) (protein, listed as Homo sapiens)
chain: LNFRAPPVIPNVPFLWAWNAPSEFCLGKFDEPLDMSLFSFIGSPRINATGQGVTIFYVDRLGYYPYIDSITGVTVNGGIPQKISLQDHLDKAKKDITFYMPVDNLGMAVIDWEEWRPTWARNWKPKDVYKNRSIELVQQQNVQLSLTEATEKAKQEFEKAGKDFLVETIKLGKLLRPNHLWGYYLFPDCYNHHYKKPGYNGSCFNVEIKRNDDLSWLWNESTALYPSIYLNTQQSPVAATLYVRNRVREAIRVSKIPDAKSPLPVFAYTRIVFTDQVLKFLSQDELVYTFGETVALGASGIVIWGTLSIMRSMKSCLLLDNYMETILNPYIINVTLAAKMCSQVLCQEQGVCIRKNWNSSDYLHLNPDNFAIQLEKGGKFTVRGKPTLEDLEQFSEKFYCSCYSTLSCKEKADVKDTDAVDVCIADGVCIDAFLKPPMETEEPQIFY
modifications: N-glycans removed by PNGaseF; soluble rHuPH20 36-482
For B1, which “rHuPH20 activity after glycosidase treatment (assay readout)” value (shortened to “rHuPH20 activity”) (rHuPH20 0.0080 U/ml) is on record?
Its value is 1.9172.

What about the “rHuPH20 activity” value (rHuPH20 0.0400 U/ml) of the same molecule?
The value was 1.9926.

And the “rHuPH20 activity” value (rHuPH20 0.2000 U/ml)?
The value was 1.9173.

And the “rHuPH20 activity” value (rHuPH20 1.0000 U/ml)?
The value was 1.9315.

— patent publication US9284543B2, “Neutral active soluble truncated PH20 polypeptides and uses thereof” (Halozyme, Inc., priority 2008, dated 2016)
